Data: US20210038648A1 (THOMAS JEFFERSON UNIVERSITY, published 2021)

Key:
[1] = molecular target: T1, human GUCY2C (hGUCY2C) on cells (human, UniProt P25092 24-1073); experiment: flow cytometry on CT26.hGUCY2C cells
T1 construct: whole, on cells; also called guanylyl cyclase C; GCC
Text: Cells were authenticated by the original suppliers and routinely authenticated by morphology, growth, antibiotic resistance (where appropriate GUCY2C and β-galactosidase expression, and pattern of metastasis in vivo and routinely screened for mycoplasma using the Universal Mycoplasma Detection Kit (ATCC, Cat. No. 30-1012K). Before injection into mice, cells were routinely cultured for <2weeks. The gene encoding human GUCY2C was codon-optimized and synthesized (Gene Art, Life Technologies) and cloned into the retroviral construct pMSCVpuro (Clontech). CT26.hGUCY2C and CT26.CL25.hGUCY2C were generated by transducing CT26 and CT26.CL25 cells with retroviral supernatants encoding hGUCY2C, followed by selection with puromycin. […] The single chain variable fragment (scFv) from the human GUCY2C-specific antibody 5F9 was cloned into the pFUSE-rIgG-Fc2 (IL2ss) plasmid (Invivogen), producing a 5F9 scFv fusion protein with rabbit Fc (5F9-rFc), 5F9-rFc was collected in supernatants of transfected 293F cells (Life Technologies), titrated in ELISA plates (Nunc-Immuno PolySorp) coated with BSA or recombinant 6×His-tagged hGUCY2C extracellular domain (6×His-hGUCY2CECD) protein purified under contract from HEK293-6E cells by GenScript and detected with HRP-conjugated goat anti-rabbit (Jackson ImmunoResearch). […]

[2] = molecular target: T2, recombinant 6xHis-tagged hGUCY2C extracellular domain (6xHis-hGUCY2CECD) (human, UniProt P25092 24-430); experiment: ELISA; plate coated with 6xHis-hGUCY2CECD, 5F9-rFc titrated
T2 construct: extracellular domain; also called purified hGUCY2C extracellular domain; immobilized hGUCY2CECD protein; not shown: 6xHis tag
T2 sequence (P25092 24-430): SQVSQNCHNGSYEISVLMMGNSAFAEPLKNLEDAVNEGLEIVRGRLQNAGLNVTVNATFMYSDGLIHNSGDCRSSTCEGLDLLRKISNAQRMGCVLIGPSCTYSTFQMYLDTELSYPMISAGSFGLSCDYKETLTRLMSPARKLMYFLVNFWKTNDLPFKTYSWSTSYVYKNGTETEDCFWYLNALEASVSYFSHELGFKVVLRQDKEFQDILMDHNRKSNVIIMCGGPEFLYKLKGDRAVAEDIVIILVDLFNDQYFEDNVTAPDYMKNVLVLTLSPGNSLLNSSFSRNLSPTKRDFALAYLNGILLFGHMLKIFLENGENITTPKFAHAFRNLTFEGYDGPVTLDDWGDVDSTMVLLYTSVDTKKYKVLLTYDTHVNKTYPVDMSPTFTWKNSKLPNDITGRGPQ

T1 sequence (P25092 24-1073): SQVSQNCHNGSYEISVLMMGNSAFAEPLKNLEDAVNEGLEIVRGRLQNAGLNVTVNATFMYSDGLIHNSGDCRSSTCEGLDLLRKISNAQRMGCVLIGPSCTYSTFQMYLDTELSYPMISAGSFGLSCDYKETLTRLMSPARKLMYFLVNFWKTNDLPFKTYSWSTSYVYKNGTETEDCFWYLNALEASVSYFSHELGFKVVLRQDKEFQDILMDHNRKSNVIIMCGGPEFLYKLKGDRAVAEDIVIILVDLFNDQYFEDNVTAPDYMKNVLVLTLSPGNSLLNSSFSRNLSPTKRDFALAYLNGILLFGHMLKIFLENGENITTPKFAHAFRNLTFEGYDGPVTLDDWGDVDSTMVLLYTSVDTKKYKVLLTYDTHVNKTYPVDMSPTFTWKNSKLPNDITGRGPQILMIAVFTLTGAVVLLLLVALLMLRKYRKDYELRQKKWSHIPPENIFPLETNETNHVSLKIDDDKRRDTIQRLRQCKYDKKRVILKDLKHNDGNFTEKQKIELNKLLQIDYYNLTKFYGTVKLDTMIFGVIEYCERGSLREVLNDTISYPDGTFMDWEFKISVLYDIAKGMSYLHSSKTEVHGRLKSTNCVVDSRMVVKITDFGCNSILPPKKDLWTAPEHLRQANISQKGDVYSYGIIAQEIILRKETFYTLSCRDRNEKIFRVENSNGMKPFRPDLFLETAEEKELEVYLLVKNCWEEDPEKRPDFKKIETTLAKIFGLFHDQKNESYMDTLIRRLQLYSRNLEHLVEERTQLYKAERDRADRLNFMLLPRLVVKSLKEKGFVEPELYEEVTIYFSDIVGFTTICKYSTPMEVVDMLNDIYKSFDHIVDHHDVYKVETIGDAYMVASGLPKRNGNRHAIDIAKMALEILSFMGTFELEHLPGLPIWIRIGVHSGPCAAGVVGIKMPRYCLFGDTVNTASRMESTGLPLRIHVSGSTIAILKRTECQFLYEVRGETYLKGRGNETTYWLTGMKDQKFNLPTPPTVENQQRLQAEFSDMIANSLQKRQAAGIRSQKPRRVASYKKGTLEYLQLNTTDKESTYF

binding result [1]: binds
binding result [2]: binds
B1: 5F9 scFv fusion protein with rabbit Fc (5F9-rFc) (Fc fusion)
chain: EIVMTQSPATLSVSPGERATLSCRASQSVSRNLAWYQQKPGQAPRLLIYGASTRATGIPARFSGSGSGTEFTLTIGSLQSEDFAVYYCQQYKTWPRTFGQGTNVEIKASGGGGSGGGGSGGGGSGGGGSELQVQLQQWGAGLLKPSETLSLTCAVFGGSFSGYYWSWIRQPPGKGLEWIGEINHRGNTNDNPSLKSRVTISVDTSKNQFALKLSSVTAADTAVYYCARERGYTYGNFDHWGQGTLVTVSS
notes: Secreted from transfected 293F cells and used as supernatant; also called recombinant 5F9 antibody; 5F9 antibody; not shown: rabbit IgG Fc from plasmid pFUSE-rIgG-Fc2 (IL2ss) (Invivogen)
